We go through two molecules from patent US20260250371A1 (ULTRAGENYX PHARMACEUTICAL, published 2026).

Residue numbers refer to the chain shown, from its start. Names and notes keep the numbering of the source. Values joined by “and” are separate entries in the source; they are usually repeats but may differ in a detail not shown here. Identical values can stand only once. Like-named read-outs stand apart in the source and are kept apart here.

In series [1] the target is T1, cynomolgus monkey (Macaca fascicularis) FGF23 (R179Q) (cynomolgus monkey (Macaca fascicularis), UniProt Q9GZV9 25-251 (human entry), limits assumed).
T1 construct: also called cynoFGF23; cynoFGF23(R179Q)
T1 chain: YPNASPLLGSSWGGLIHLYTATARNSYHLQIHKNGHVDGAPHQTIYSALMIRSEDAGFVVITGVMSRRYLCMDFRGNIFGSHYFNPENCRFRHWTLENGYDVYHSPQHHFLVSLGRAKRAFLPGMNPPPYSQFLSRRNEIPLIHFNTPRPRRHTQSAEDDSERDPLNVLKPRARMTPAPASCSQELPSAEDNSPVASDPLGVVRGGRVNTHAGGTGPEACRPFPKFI
The series is described as follows: SPR, antibody captured on hIgG chip, cynoFGF23(R179Q) analyte, single cycle kinetics. On the procedure:
Binding kinetics of 13 antibody variants shown in Table 19 were characterized against cynomolgus monkey (Macaca fascicularis) FGF23 (R179Q) (i.e., “cynoFGF23”) (SEQ ID NO: 372). Antibody variants were expressed at small scale (3 ml) and screened by SPR analysis at a single concentration (100 nM). Experimental setup of SPR analysis for CRC: SPR device—8K+; chip preparation—CM5 hIgG chip: channels—1-8; immobilization concentration—1.5 ug/ml; immobilization method—capture; flow rate—5 μl/min; contact time—60 s; running buffer—1×HBS-EP+pH 7.4; temperature—20° C.: flow rate—50 μl/min; association time—120 s; dissociation time—1800 s; antigen—cynoFGF23(R179Q): top concentration—0.1 μM, 9-pt 3-fold Single Cycle Kinetics.

The target in series [2] is T2, recombinant human FGF23 (R179Q) (human, UniProt Q9GZV9 25-251).
T2 construct: also called rhFGF23(R179Q); hFGF23(R179Q)
T2 sequence (looked up): T1 chain with N85D, R92Q, W94Q, H108Y, R149I, V195M, A219G, P224A
Briefly: SPR, antibody captured on hIgG chip, rhFGF23(R179Q) analyte. On the technique in general: SPR reads the build-up and loss of mass on a sensor chip optically.

Series [3] addresses T2, recombinant human FGF23 (R179Q). The series is described as above. This is another data set of the same source.
Series [4] shares this target. The series is described as follows: SPR, antibody captured on hIgG chip, human FGF23 analyte.
Series [5] concerns the molecule itself. The series is described as follows: X-ray crystal structure of the hFGF23(R179Q):burosumab Fab complex. On the procedure: To further characterize the human FGF23-burosumab interaction, x-ray crystallographic study was carried out using fully glycosylated human FGF23 (R179Q) from HEK293S cell supernatant in complex with burosumab Fab fragments also expressed in HEK293S cells. Burosumab IgG heavy and light chains were subjected to papain digestion to separate Fc and Fab fragments, then Protein A to isolate Fab fragments of approximately 50 kDa, according to routine methods (Pierce™ Fab Preparation Kit, Thermo Scientific™, cat #!44985). Fully glycosylated human FGF23 (R179Q) and burosumab Fab fragments were incubated on ice for more than one hour (1:0.8 molar ratio) and the stable complex was isolated by size exclusion chromatography (SEC) followed by evaluation by SDS-PAGE. SEC fractions containing the complex were pooled, concentrated, and stored at −80° C.
Diffraction data was collected from a single crystal at the Advanced Photon Source (APS) synchrotron and processed using autoPROC (autoProc, XDS, POINTLESS, AIMLESS, CCP4, and STARANISO) (see Vonrhein C, Flensburg C, Keller P, Sharff A, Smart O, Paciorek W, Womack T, Bricogne G. Data processing and analysis with the autoPROC toolbox. Acta Crystallogr D Biol Crystallogr. 2011 April; 67(Pt 4):293-302. [doi:10.1107/S0907444911007773]). […]

B1: UGX144 (antibody, human IgG1, kappa, V domains shown)
VH: QVQLVQSGAEVKKPGASVKVSCKASGYTFTNHYMHWVRQAPGQGLEWMGIINPISGSTSNAQKFQGRVTMTRDTSTSTVYMELSSLRSEDTAVYYCARDIVDAFDFWGQGTMVTVSS
VL: AIQLTQSPSSLSASVGDRVTITCRASQGISSALVWYQQKPGKAPKLLIYDASSLESGVPSRFSGSGSGTDFTLTISSLQPEDFATYYCQQFNDDFTFGPGTKVDIKR
notes: also called LC:Y94D; Y94D
On to B1, for which, in series [1], the “KD ratio (variant antibody KD/burosumab KD)” value was 3 and the equilibrium dissociation constant (Kd) (as a rule, the free concentration of one partner at which half of the binding sites on the other are occupied at equilibrium, for simple one-to-one binding) came to 6.86 pM. In addition, in series [2], the dissociation constant (Kd) was 6.58 pM and 5.77 pM; the off-rate constant (koff) (commonly the rate constant with which the complex falls apart) is 7.03e-05 s⁻¹ and 6.31e-05 s⁻¹; the kon (usually a measure of how fast the partners come together) was 1.07e+07 M⁻¹ s⁻¹ and 1.09e+07 M⁻¹ s⁻¹. In series [3], the Kd stood at 5.77 pM, the “Ratio (variant antibody KD/burosumab KD)” value stood at 4, the “SA (surface activity)” value turned out to be 89.5% and the off-rate constant (koff) was found to be 6.31e-05 s⁻¹. Further, the kon in series [3] is 1.09e+07 M⁻¹ s⁻¹. Besides, in series [4], the “KD ratio (variant antibody KD/burosumab KD)” value was 4 and the dissociation constant Kd is 5.77 pM.

B2: human FGF23 (R179Q) (ligand, UniProt Q9GZV9 25-251, looked up)
chain: T1 chain with N85D, R92Q, W94Q, H108Y, R149I, V195M, A219G, P224A
modifications: fully glycosylated (from HEK293S cells)
notes: also called hFGF23(R179Q); rhFGF23(R179Q)
On to B2, for which, in series [5], the binding result is given as “binds”.
